B1: MIP-1α: natural ligand of CCR5 (protein, UniProt P10147 24-92, looked up)
C-C motif chemokine 3: SLAADTPTACCFSYTSRQIPQNFIADYFETSSQCSKPGVIFLTKRSRQVCADPSEEWVQKYVSDLELSA
B2: MIP-1β: natural ligand of CCR5 (protein, UniProt P13236 24-92, looked up)
C-C motif chemokine 4: APMGSDPPTACCFSYTARKLPRNFVVDYYETSSLCSQPAVVFQTKRSKQVCADPSESWVQEYVYDLELN
modifications: ends and bridges not checked
notes: natural ligand of CCR5
B3: RANTES: natural ligand of CCR5 (protein, UniProt P13501 24-91, looked up)
C-C motif chemokine 5: SPYSSDTTPCCFAYIARPLPRAHIKEYFYTSGKCSNPAVVFVTRKNRQVCANPEKKWVREYINSLEMS

System: HT-29 cells
Assay: Calcium signaling in HT-29 cells (Fluo 4, confocal microscope)
Type: cell-based, human
Protocol: HT-29 cells (from ATCC) were grown in DMEM-F12 with 10% bovine calf serum, and were used 24-48 hours after plating. The Ghost (3) cells were obtained from the AIDS Research and Reference Reagent Program, and were grown DMEM with 10% bovine calf serum supplemented with 500 μg/ml G418, 100 μg/ml hygromycin, and 1 μg/ml puromycin.^27 These cells were used 24 to 96 hours after plating.
Calcium studies were done on HT-29 cells and Ghost (3) cells loaded with Fluo 4. The cells were placed in Locke's buffer containing 5 μg/ml Fluo 4 AM ester (Molecular Probes) for 20 to 30 minutes, then in Locke's buffer for an additional 30 minutes before testing. Various concentrations of gp120IIIB (X4 trophic), gp120CM235 (R5 trophic), gp120mN (X4 trophic), gp12093TH975 (nonsyncytium-inducing primary isolate from an asymptomatic subject, trophism undetermined but likely R5), and gp120SF2 (X4R5 trophic), ranging from 10 nM to less than 1 pM, were added in Locke's buffer.^6 The gp120 proteins were obtained from the AIDS Research Reagent Referral Program. Some HT-29 cells were given one of the following pretreatments: 50 μg/ml anti-Bob37 overnight, 1 μg/ml pertussis toxin overnight, or 4.6 μg/ml U73122 for one hour. With the HT-29 cells only, similar tests were also performed with SDF-1, MIP-1α, MIP-1β, and RANTES rather than gp120. The cells were visualized every 4 seconds in a confocal microscope, using 488 nm argon laser excitation and detection filters appropriate for fluorescein-like dyes.
For the first two or three days after plating, gp120 induces an immediate (within 4 seconds) calcium flux in undifferentiated HT-29 cells. The cells had previously been loaded with Fluo-4 AM ester (Molecular Probes, Eugene Oreg.) 5 micrograms/ml in the presence of Pleuronic F-127 0.02% in Locke's buffer for 30 minutes, then incubated at room temperature for an additional 30 minutes. Gp120IIIB was added while the cells were on an inverted confocal microscope using a 488 nm argon laser, with detection filters suitable for fluorescein-like dyes. […]

Molecule | calcium signaling in HT-29 cells, in words
B1 | induced similar calcium signaling
B2 | induced similar calcium signaling
B3 | induced similar calcium signaling

Reference: patent US20050042747A1, “Hivgp120-induced bob/gpr15 activation” (priority 2001, published 2005)
